According to US20230272390A1, “COMPOSITIONS AND METHODS FOR HEMOGLOBIN PRODUCTION” (THE CHILDREN'S HOSPITAL OF PHILADELPHIA, priority 2020, published 2023):

How the values were obtained:
endogenous ZNF410 [1] = test: ChIP-seq in HUDEP-2 cells overexpressing HA-tagged ZF constructs; format: cell-based, human; conditions: overexpression in HUDEP-2 cells
Procedure: HUDEP-2 cells at Day 3 of differentiation, primary human CD34+ cells at Day 9 differentiation (similar to the polychromatic stage) and G1E-ER4 cells at 24 hours differentiation were crosslinked with 1% formaldehyde at room temperature for 10 min and quenched by the addition of glycine. ChIP experiments were performed (Hsu, et al. (2017) Mol. Cell., 66:102-116). ZNF410 (Proteintech, Cat. #14529-1-AP), HA (Sigma, Cat. #11815016001) and H3K27ac (Abcam, Cat. #ab4729) antibodies were used for ChIP. ChIP-seq libraries were prepared using TruSeq® ChIP-seq Sample preparation Kit (part #IP-202-1012) according to the manufacturer's instructions. Reads were aligned with Bowtie2 local alignment to allow the mapping of indels (Langmead, et al. (2012) Nat. Methods 9:357-359). […]
Reads were aligned against reference genome hg38 for human and genome mm10 for mouse using Bowtie2 (v2.2.9) and the default parameters. […] Reads aligned to mitochondria, random contigs and ENCODE blacklisted regions were also removed for downstream analysis. Genome coverage files were generated and normalized to 1 million reads per library using bedtools (v2.25.0), and then converted to bigwig format for visualization using the UCSC Toolkit. […] Read density plot and heatmap around selected peaks were generated using Deeptools (version 2.5.7, “computeMatrix” and “plotHeatmap”). […]

endogenous ZNF410 [2] = molecular target: T1, endogenous ZNF410 (Homo sapiens, UniProt Q86VK4); test: RT-qPCR in HUDEP-2 cells overexpressing HA-tagged ZNF410 constructs; format: cell-based
T1 construct: endogenous in cells; host or cells: HUDEP-2 (HUDEP-2-Cas9) cells, differentiated
T1 sequence (Q86VK4 1-478): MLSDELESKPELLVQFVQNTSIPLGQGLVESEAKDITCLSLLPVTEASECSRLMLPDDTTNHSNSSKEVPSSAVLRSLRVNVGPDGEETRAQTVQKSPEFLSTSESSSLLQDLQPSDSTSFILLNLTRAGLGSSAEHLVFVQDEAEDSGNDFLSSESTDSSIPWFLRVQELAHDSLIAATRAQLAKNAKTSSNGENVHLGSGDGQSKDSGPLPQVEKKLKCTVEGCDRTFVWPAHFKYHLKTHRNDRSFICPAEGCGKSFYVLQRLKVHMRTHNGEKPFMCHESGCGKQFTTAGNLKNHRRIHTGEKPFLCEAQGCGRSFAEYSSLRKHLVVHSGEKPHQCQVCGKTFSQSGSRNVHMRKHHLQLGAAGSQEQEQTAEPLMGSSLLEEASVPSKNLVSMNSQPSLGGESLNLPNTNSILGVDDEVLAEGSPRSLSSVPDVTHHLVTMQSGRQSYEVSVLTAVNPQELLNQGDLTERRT
Procedure: HUDEP-2 cells were cultured and differentiated as described (Kurita, et al. (2013) PLoS One 8:e59890). Briefly, StemSpan™ Serum-Free Expansion Medium (SFEM) supplemented with 50 ng/ml human stem cell factor (SCF), 10 μM dexamethasone, 1 μg/ml doxycycline, 3 IU/ml erythropoietin and 1% penicillin/streptomycin was utilized for routine cell maintenance. Cell density was kept at 0.1-1×10^6/ml. HUDEP-2 cells were differentiated for 6-7 days in IMDM supplemented with 50 ng/ml human SCF, 3 IU/ml erythropoietin, 2.5% fetal bovine serum, 250 μg/ml holo-transferrin, 10 ng/ml heparin, 10 μg/ml insulin, 1 μg/ml doxycycline and 1% penicillin/streptomycin.
SgRNAs were cloned into a lentiviral U6-sgRNA-EFS-GFP/mCherry expression vector (LRG, Addgene: #65656) by BsmBI digestion. The ZNF410 cDNA (clone ID: OHu10535), CHD4 cDNA (clone ID: OHu28780) were purchased from GenScript and were sub-cloned into a lentiviral vector pSDM101-IRES-GFP. ZNF410 variants were sub-cloned into pSDM101-IRES-GFP vector. The N-terminal HA tag was introduced by PCR. For EMSA, the ZNF410 full length or different ZF versions were sub-cloned into mammalian expression vector pcDNA3.
Lentivirus was produced as described (Grevet, et al. (2018) Science 361:285-290). Briefly, 10-20 μg of expression vectors, 5-10 μg of pVSVG (pMD2.G) and 7.5-15 μg of psPAX2 package plasmids, and 80 μl of 1 mg/ml polyethylenimine (PEI) were mixed, incubated for 15-20 minutes, and added to HEK293T cells grown in 10 cm plates to above 90% confluence. Media were replaced 6-8 hours post transfection, virus was collected 24 hours and 48 hours post-transfection and pooled. For infection, virus-containing supernatant was mixed with the indicated cell lines with 8 μg/ml polybrene and 10 mM HEPES, and then spun at 2250 rpm for 1.5 hours at room temperature. Infected HUDEP-2 cells were selected for mCherry+ or GFP+ cell sorting at 48 hours post-infection.
Total RNA was purified using the RNeasy® Plus Mini Kit (Qiagen), including an on-column DNAse treatment using RNase-free DNase set (Qiagen) to remove genomic DNA. Reverse transcription was accomplished using iScript™ Supermix (Bio-Rad). qPCR reactions were prepared with Power SYBR® Green (ThermoFisher Scientific). Quantification was performed using the ΔΔCT method.
Overexpression of ZF1-5 but not ZF2-4 should compete with endogenous ZNF410 for chromatin binding, thus acting in a dominant-negative manner. To test this hypothesis, a construct containing HA-tagged ZF1-5 or ZF2-4 driven by the EF1α promoter was introduced via lentiviral infection into HUDEP-2 cells. As control, the expression of full-length HA-tagged ZNF410 was forced. […] Moreover, full-length HA-ZNF410 when overexpressed to similar levels to HA-ZF1-5 also produced similar binding patterns (FIG. 4A). […] Thus, the ZF region is sufficient for chromatin occupancy but insufficient for CHD4 gene activation. […] Finally, the impact of ZNF410 expression on γ-globin levels was also measured.

[3] = overexpression in HUDEP-2 cells

B1: ZF1-5: fragment of human ZNF410 comprising five zinc finger domains ZF1-5 (residues 217-366); dominant-negative when overexpressed (protein)
chain: KKLKCTVEGCDRTFVWPAHFKYHLKTHRNDRSFICPAEGCGKSFYVLQRLKVHMRTHNGEKPFMCHESGCGKQFTTAGNLKNHRRIHTGEKPFLCEAQGCGRSFAEYSSLRKHLVVHSGEKPHQCQVCGKTFSQSGSRNVHMRKHHLQLG
modifications: left off: small tags and cut ends
notes: fragment of human ZNF410 comprising five zinc finger domains ZF1-5 (residues 217-366); dominant-negative when overexpressed
- interference with endogenous ZNF410 binding (endogenous ZNF410 [1]; ChIP-seq): markedly interfered
- chromatin occupancy (endogenous ZNF410 [1]; HA ChIP-seq): bound to the CHD4 regulatory regions and to the other ZNF410 targets
- effect on expression of the other 6 ZNF410 bound genes (endogenous ZNF410 [2]; [3]): did not impact
- reduction of CHD4 mRNA levels compared to control (endogenous ZNF410 [2]; [3]): approximately 70%
- effect on γ-globin mRNA levels (endogenous ZNF410 [2]; overexpression in differentiated HUDEP-2 cells): significant increase
